Test results taken from patent US20050154192A1 (published 2005).

B1: F997-20-1 antibody (antibody, IgG1, V domains shown)
VH: EVQLQQSGGGLVQPGRSLNLSCAASGFTFNDYYMAWVRQAPKKGLEWVATIIYDGTRTYYRDSVKGRFTISRDNAKSTLYLQMDSLRSEDTATYYCATPWGSWGQGTTVTVSS
VL: DIQMTQSPSSMPASLGERVTISCRASQGISNFLNWYQQKADGTIKPLIYYTSNLQSAVPSRFSGSGSGTDYSLTISSLEPEDFAMYYCQQYDSSPWTFGGGTKLEITR
B2: F997-13-1 antibody (antibody, IgG1, V domains shown)
VH: EVKLQQSGGGLVQPGRSMKLSCAASGFTFSNYGMAWVRQAPKKGLEWVAYISYDGGSTYYRDSVKGRFTISRDNAKSTLYLQMDSLRSEDTATYHCTTPHYGYKYWYFDFWGQGTTVTVSS
VL: DIQMTQSPASLSASLGETVTIECRASEDIYNGLAWYQQKPGKSPQLLIYHANSSHTGVPSRFSGSGSGTQYSLKIDSLQSEDVANYFCQQYYDYPTFGAGTKLELKR

Key:
[1] = molecular target: Recombinant Mouse IL-13 Rα1/Fc Chimera (R&D) (mouse) (UniProt O09030); test: SPR (BIACORE), same format; rat IgG control, by definition the 0% reference
Chain of Recombinant Mouse IL-13 Rα1/Fc Chimera (R&D) (mouse) (O09030 26-340 limits assumed, change not shown): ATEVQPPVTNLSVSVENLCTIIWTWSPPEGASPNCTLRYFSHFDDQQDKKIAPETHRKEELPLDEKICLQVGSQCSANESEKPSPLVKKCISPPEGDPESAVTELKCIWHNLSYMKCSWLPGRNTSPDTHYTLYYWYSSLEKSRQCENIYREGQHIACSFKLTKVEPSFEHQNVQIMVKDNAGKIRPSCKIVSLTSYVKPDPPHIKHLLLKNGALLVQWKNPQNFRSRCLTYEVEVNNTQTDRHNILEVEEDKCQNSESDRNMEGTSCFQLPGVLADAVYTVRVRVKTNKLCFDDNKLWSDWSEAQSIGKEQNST

[2] = molecular target: Recombinant Human IL-13 Rα1/Fc Chimera (R&D) (human) (UniProt P78552); test: as above
[3] = molecular target: T1, human IL13 Rα1-Fc (fusion of the extracellular domain of human IL13 receptor α1 and an Fc fragment of human … (human, UniProt P78552 22-343)); test: SPR (BIACORE), human IL13 Rα1-Fc immobilized on CM5 chip, antibody at 2, 10 and 50 µg/ml
T1 construct: extracellular domain; also called soluble IL13 receptor α1-Fc; not shown: human IgG1 Fc domain (cDNA from plasmid pM1304, WO97/42319), joined in frame over a HindIII site
T1 sequence (looked up): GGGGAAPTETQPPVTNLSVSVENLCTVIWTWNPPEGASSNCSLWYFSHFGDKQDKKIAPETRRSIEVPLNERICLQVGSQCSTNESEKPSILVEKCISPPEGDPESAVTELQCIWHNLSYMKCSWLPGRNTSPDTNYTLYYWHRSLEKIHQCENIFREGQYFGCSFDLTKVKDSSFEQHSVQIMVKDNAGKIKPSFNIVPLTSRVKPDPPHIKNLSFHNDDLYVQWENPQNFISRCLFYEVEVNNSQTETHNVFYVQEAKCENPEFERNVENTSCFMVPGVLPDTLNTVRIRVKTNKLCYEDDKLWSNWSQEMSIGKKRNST
Experimental: The association constant of the anti-IL13 Rα1 antibody prepared was determined using BIACORE. That is, a CM5 chip (Biacore CO., Ltd.) was activated for 7 minutes according to the manual of Biacore Co., Ltd. and then 100 μg/ml of the human IL13 Rα1-Fc prepared in Example 1 was immobilized thereon. An HBS-EP buffer solution (Biacore Co., Ltd) was flown at a flow rate of 20 μl/min, and then the association constants of four kinds of the antibodies diluted to 2, 10, and 50 μg/ml with the same buffer solution were obtained. The binding antibody was dissociated with a 0.1-M glycine hydrochloric acid buffer solution (pH 3.0) and the chip was then used again. The resulting data was analyzed using analyzing software, BIA evaluation, Biacore Co., Ltd., and the dissociation constant (Kd) thereof was calculated.

[4] = molecular target: T2, IL13 receptor α1 on TF-1 cells (human, UniProt P78552 22-427); test: cell-based or functional assay
T2 sequence (looked up): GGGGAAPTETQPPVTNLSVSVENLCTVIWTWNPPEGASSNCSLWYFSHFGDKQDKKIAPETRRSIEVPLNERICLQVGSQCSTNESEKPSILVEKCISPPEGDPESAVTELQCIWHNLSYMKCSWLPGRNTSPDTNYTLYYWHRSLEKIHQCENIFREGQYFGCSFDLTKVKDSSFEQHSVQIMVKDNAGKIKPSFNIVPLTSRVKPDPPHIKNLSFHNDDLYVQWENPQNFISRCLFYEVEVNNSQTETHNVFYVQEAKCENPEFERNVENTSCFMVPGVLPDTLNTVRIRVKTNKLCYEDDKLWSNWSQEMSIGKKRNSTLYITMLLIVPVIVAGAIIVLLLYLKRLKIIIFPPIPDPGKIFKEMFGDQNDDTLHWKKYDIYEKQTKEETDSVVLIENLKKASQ

Molecule	Mouse IL13/IL13 R binding inhibition rate (%) [1] [%]	Human IL13/IL13 R binding inhibition rate (%) [2] [%]	Kd [3] [nM]	IC50 (µg/mL) for cell response with IL 4 (1 ng/mL); TF-1 proliferation [4] [µg/mL]	IC50 (µg/mL) for cell response with IL 13 (1 ng/mL); TF-1 proliferation [4] [µg/mL]
rat IgG (control antibody)	0	0			
B1			1.07	> 10	1.2
B2			4.1	> 10	6.6
